Values belong to the binder of their own block, whether it stands above or below them.
What was measured:
[1] = molecular target: T1, recombinant human tryptase beta 1 tetramer (wild type, active) (human, UniProt Q15661 31-275); test: ELISA on biotinylated human tryptase beta 1 captured on NeutrAvidin, with heparin to keep the tetramer
T1 construct: Non-covalent homotetramer made by enterokinase removal of the His6 tag in the presence of heparin or dextran sulfate; In the huE104.v1 crystal the active sites were modified with Glu-Gly-Arg-chloromethyl ketone; also called WT tetrameric tryptase; active tetrameric tryptase beta 1
T1 sequence (Q15661 31-275): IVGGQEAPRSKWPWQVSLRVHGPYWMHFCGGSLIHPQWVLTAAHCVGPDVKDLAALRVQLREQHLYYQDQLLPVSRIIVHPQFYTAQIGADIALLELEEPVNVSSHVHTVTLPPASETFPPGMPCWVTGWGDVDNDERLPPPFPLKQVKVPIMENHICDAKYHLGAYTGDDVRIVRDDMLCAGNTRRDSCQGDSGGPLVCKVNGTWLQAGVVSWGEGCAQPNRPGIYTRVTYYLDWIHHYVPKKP

human tryptase beta 3 [2] = molecular target: T2, human tryptase beta 3 (human, UniProt P20231 31-275); test: SPR, protocol as for tryptase beta 1
T2 sequence (P20231 other isoform, or with tags, fused parts or gaps limits assumed): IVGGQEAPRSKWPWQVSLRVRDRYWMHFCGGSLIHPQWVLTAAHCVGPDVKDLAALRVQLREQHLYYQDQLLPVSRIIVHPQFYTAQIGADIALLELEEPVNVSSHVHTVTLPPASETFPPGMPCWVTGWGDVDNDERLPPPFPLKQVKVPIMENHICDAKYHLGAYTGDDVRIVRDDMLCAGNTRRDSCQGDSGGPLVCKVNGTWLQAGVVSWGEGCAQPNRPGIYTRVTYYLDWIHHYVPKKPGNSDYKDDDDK
Method: (§1) In this experiment, all the humanized variants were expressed as IgG by transient transfection of 293 cells. IgG was purified with protein G affinity chromatography. The affinity of each variant for recombinant His-tagged human tryptase beta 1 monomer (SEQ ID NO: 128) was determined by SPR analysis using a BIAcore® T200. BIAcore® Series S CM5 sensor chips were immobilized with monoclonal mouse anti-human IgG (Fc) antibody (Human antibody capture kit from GE Healthcare) and anti-tryptase variants were subsequently captured on each flow cell. Serial 3-fold dilutions of the human tryptase beta 1 monomer were injected at a flow rate of 30 μl/min. Each sample was analyzed with 3 min association and 10 min dissociation. After each injection, the chip was regenerated using 3 M MgCl₂. Binding response was corrected by subtracting the response units (RU) from a flow cell capturing an irrelevant IgG at similar density. A 1:1 Languir model of simultaneous fitting of kₒₙ and koff was used for kinetics analysis.

human tryptase beta 3 [3] = molecular target: T2, human tryptase beta 3; test: cell-based or functional assay
[4] = molecular target: T3, recombinant His-tagged human tryptase beta 1 monomer (human, UniProt Q15661 31-275); test: SPR, tryptase beta 1 monomer
T3 construct: also called His6-tagged tryptase monomer; human tryptase b1 monomer
T3 sequence (Q15661 other isoform, or with tags, fused parts or gaps): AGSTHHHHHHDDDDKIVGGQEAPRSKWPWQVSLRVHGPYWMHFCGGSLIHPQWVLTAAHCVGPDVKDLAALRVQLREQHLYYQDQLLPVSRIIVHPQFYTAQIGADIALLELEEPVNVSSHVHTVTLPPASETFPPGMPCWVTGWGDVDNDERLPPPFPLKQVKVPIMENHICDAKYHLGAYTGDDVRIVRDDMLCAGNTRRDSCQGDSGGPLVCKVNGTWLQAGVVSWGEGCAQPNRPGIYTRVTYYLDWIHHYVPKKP
Method: The assay can use a BIAcore® T200 or an equivalent device. Briefly, BIAcore® Series S CM5 sensor chips (or equivalent sensor chips) are immobilized with monoclonal mouse anti-human IgG (Fc) antibody and anti-tryptase antibodies are subsequently captured on the flow cell. Serial 3-fold dilutions of the human tryptase beta 1 monomer are injected at a flow rate of 30 μl/min. Each sample is analyzed with 3 min association and 10 min dissociation. The assay is performed at 25° C. After each injection, the chip is regenerated using 3 M MgCl₂. Binding response is corrected by subtracting the response units (RU) from a flow cell capturing an irrelevant IgG at similar density. A 1:1 Languir model of simultaneous fitting of kₒₙ and koff is used for kinetics analysis.
as §1

[5] = molecular target: T1, recombinant human tryptase beta 1 …; test: cell-based or functional assay
[6] = molecular target: T3, recombinant His-tagged human tryptase …; test: SPR, tryptase beta 1 monomer; remark: listed apart in the source

binding result [1]: binds
B1: rabbit anti-tryptase monoclonal antibody E104 (antibody, V domains shown)
VH: QSLEESGGGLFKPTDTLTLTCTVSRFSLIGYAITWVRQSPENGLEWIGGISSAATTFYSSWAKSRSTITRNTNENTVTLKMTSLTAADTATYFCARDPRGYGAALDRLDLWGQGTLVTVSS
VL: AAVLTQTPASVSAAVGGTVSISCQSIKSVYNNRLGWYQQKPGQPPKLLIYETSILTSGVPSRFKGSGSETQFTLTISDVQCDDAATYFCAGGFDRSGDTTFGGGTEVVVK
notes: Rabbit hybridoma antibody with rabbit kappa light chain; also called rab.E104; clone E104

Kd (human tryptase beta 3 [2]): 0.13 nM
IC50 (nM), tryptase enzymatic assay (human tryptase beta 3 [3]): 2.8 nM
B2: huE104.v2 IgG4 (S228P) (antibody)
heavy: not shown
light: DIQMTQSPSSLSASVGDRVTITCQSIKSVYNNRLGWYQQKPGKAPKLLIYETSILTSGVPSRFSGSGSGTDFTLTISSLQPEDFATYYCAGGFDRSGDTTFGQGTKVEIKRTVAAPSVFIFPPSDEQLKSGTASVVCLLNNFYPREAKVQWKVDNALQSGNSQESVTEQDSKDSTYSLSSTLTLSKADYEKHKVYACEVTHQGLSSPVTKSFNRGEC
notes: also called huE104.v2 Control

KD as fold increase compared to hu31A.v11 wild type [4]: 80 fold
IC50 as fold increase compared to hu31A.v11 wild type [5]: 2.5 fold
fold faster off-rate (Koff) compared to wild-type hu31A.v11 [6]: ~100 fold
B3: hu31A.v11 W100F (antibody, name in Kabat numbering, V domains shown)
VH: EVQLVESGGGLVQPGGSLRLSCAASGFTFSDYGMVWVRQAPGKGLEWVAFISSGSSTVYYADTMKGRFTISRDNSKNTLYLQMNSLRAEDTAVYYCTRRNYDDFYFDVWGQGTLVTVSS
VL: DIQMTQSPSSLSASVGDRVTITCSASSSVTYMYWYQQKPGKSPKPWIYRTSDLASGVPSRFSGSGSGTDFTLTISSLQPEDFATYYCQHYHSYPLTFGQGTKVEIK
notes: also called W100F variant
